Source: patent US10533167

Tests used:
Test in all cases: cell-based or functional assay
[1] = target: FUSN-Cry2olig (N-terminal IDR of FUS fused to mCherry-labeled Cry2olig, Cry2 E490G) (human; Arabidopsis thaliana) (UniProt Q96524)
[2] = target: optoDDX4 (N-terminal IDR of Ddx4 fused to mCherry-labeled Cry2WT) (human; Arabidopsis thaliana) (UniProt Q96524)
[3] = target: optoFUS (N-terminal IDR of FUS fused to mCherry-labeled Cry2 PHR, Cry2WT) (human; Arabidopsis thaliana) (UniProt Q96524)

“FUSN-Cry2olig (N-terminal IDR of FUS fused to mCherry-labeled Cry2olig, Cry2 E490G) (from UniProt Q96524 1-498)” was tested. Which saturation concentration for light-activated clustering, relative to optoFUS (fold lower than optoFUS) [1] did it give?
Its saturation concentration for light-activated clustering, relative to optoFUS (fold lower than optoFUS) is 5.

With “optoDDX4 (N-terminal IDR of Ddx4 fused to mCherry-labeled Cry2WT) (from UniProt Q96524 1-498)” as the substance, how does the saturation concentration (Csat) for light-activated phase separation, relative to optoFUS (fold lower than optoFUS) [2] read?
Its saturation concentration (Csat) for light-activated phase separation, relative to optoFUS (fold lower than optoFUS) is 2.

For “optoFUS (N-terminal IDR of FUS fused to mCherry-labeled Cry2 PHR, Cry2WT) (from UniProt Q96524 1-498)”, which saturation concentration (Csat) for light-activated phase separation in NIH 3T3 cells [3] is on record?
The saturation concentration (Csat) for light-activated phase separation in NIH 3T3 cells was 1.4 µM.
